Experimental data: the supplement of paper PMC10567573
± gives the standard deviation.

Test: protein stability index of a GFP-peptide fusion (GPS, HEK-293T) (PSI 1-6); higher = more stable
[1] = treatment: DMSO, c terminus: a fixed tail appended
[2] = treatment: MLN4924 1 uM, 8 h, c terminus: a fixed tail appended
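Further: 24-mer peptide tiles fused after GFP, lentivirally expressed, FACS-sorted into six equal bins by GFP/DsRed ratio, decoded by Illumina sequencing, PSI is the read-weighted mean bin number.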

Sequence | protein stability index [1] | protein stability index [2] | protein stability index (treatment: DMSO, c terminus: native) | protein stability index (treatment: MLN4924 1 uM, 8 h, c terminus: native)
QGNKKEHVIHIIDFGLAKEYIDPE [CSNK1G1] | 2.5 ± 0.16 | 2.81 ± 0.24 | – | –
QGNSVDRMAAPRAEALFDFTGNSK [NCF4] | 4.7 ± 0.15 | 4.79 ± 0.17 | – | –
QGWVREHCPESGEEAVILLEDLER [ZSCAN9] | 4.36 ± 0.12 | 4.7 ± 0.28 | – | –
QIKALNNKFASFIDKVRFLEQQNQ [KRT71] | 2.38 ± 0.1 | 2.59 ± 0.4 | – | –
QISIYGVKILEPKTKEVQHNCQLH [GULP1] | 2.58 ± 0.37 | 2.85 ± 0.39 | – | –
QITVKALPKPPGTPVVTESTATSI [PTPRD] | 4.62 ± 0.29 | 4.61 ± 0.091 | – | –
QKEVAGFVLNRLQYAIISEAWRLV [CRYL1] | 3.43 ± 0.53 | 3.37 ± 0.27 | – | –
QKRYQDWFQRQYLSTPDSQSLRCD [INTS3] | 2.96 ± 0.1 | 3.13 ± 0.17 | – | –
QLLLGRLFRWPDLQHAVELKPLCG [SMAD6] | 2.12 ± 0.19 | 2.36 ± 0.17 | – | –
QLQVTEREEVRGRELTGLKALYET [LMNB1] | 3.68 ± 0.18 | 3.98 ± 0.38 | – | –
QLSHIKAKIRAKIPGTGALASAAA [RTN2] | 3.07 ± 0.21 | 3.09 ± 0.41 | – | –
QLVLRTKEAFDTIQEQKVVLEENG [SASS6] | 4.45 ± 0.23 | 4.64 ± 0.46 | – | –
QLYGDAPGEVVPSGESGLRRRGSD [TMEM40] | 5.13 ± 0.18 | 5.19 ± 0.25 | – | –
QMAKKAEAFQLYQEAAQLDMLLEK [FLOT1] | 2.73 ± 0.36 | 3.21 ± 0.64 | – | –
QNLANEEVRKLTQRLEEMTQRMEA [MATN2] | 4.67 ± 0.14 | 4.87 ± 0.39 | – | –
QNLSRSWHDVQVSSAYVKTSEKLG [TPD52L2] | 3.98 ± 0.11 | 3.82 ± 0.21 | – | –
QNNQAKELERLIDKAMKKDGLVGM [FIS1] | 4.18 ± 0.19 | 4.3 ± 0.12 | – | –
QNQVDELERKFRCQQEQLFQTRQE [LRRC45] | 5.04 ± 0.22 | 5.02 ± 0.12 | – | –
QPGAGFGMPPAGTGMPMMPQQPVM [SNAP91] | 3.71 ± 0.26 | 3.84 ± 0.3 | – | –
QPLRTPRDEAIYECVASNNVGEIS [PTPRD] | 4.88 ± 0.23 | 5.13 ± 0.12 | – | –
QPPEMIGPMRPEQFSDEVEPATPE [GAGE1] | 5.03 ± 0.33 | 5.17 ± 0.17 | – | –
QPQDVDLALDSGASLLHLAVEAGQ [RIPK4] | 4.44 ± 0.51 | 4.58 ± 0.71 | – | –
QPQQGYIPPMAQPGLPPVPGAPGM [ZNF207] | 4.36 ± 0.068 | 4.47 ± 0.28 | – | –

Sequence | protein stability index [1] | protein stability index [2] | protein stability index (treatment: DMSO, c terminus: native) | protein stability index (treatment: MLN4924 1 uM, 8 h, c terminus: native)
QQCQYRWLRVLNPDLVKGPWTKEE [MYBL2] | 2.83 ± 0.38 | 2.9 ± 0.29 | – | –
QQQEPPLAMGTVSLGQLPLPPIPH [PLAGL1] | 4.33 ± 0.14 | 4.35 ± 0.15 | – | –
QQRLAHLEDKLRLLAQARDEAQGA [LRRC45] | 4.29 ± 0.28 | 4.37 ± 0.36 | – | –
QQRLQGQLCDVSIRVQGREFRAHR [ZBTB22] | 3.34 ± 0.42 | 3.81 ± 0.5 | – | –
QRFGEALQDQEKAWGFPENATAPR [ELOA2] | 4.78 ± 0.23 | 4.68 ± 0.46 | – | –
QRHRDILQVIYWARDVFIITGVWV [GOSR1] | 2.72 ± 0.72 | 2.25 ± 0.73 | – | –
QRPADVPEPGRAGYPAPRDEGVLR [HAGHL] | 4.85 ± 0.32 | 4.84 ± 0.15 | – | –
QRVEKDMKKAKEQLKIRKSNQIPT [FUNDC2] | 4.58 ± 0.32 | 4.56 ± 0.26 | – | –
QSAQIACSSPSVVASLPLDQSDEG [MAGEA10] | 5.5 ± 0.45 | 5.236 ± 0.029 | – | –
QSEERKRIDELIESGKEEGMKIDL [KMT5A] | 5.583 ± 0.004 | 5.5 ± 0.13 | – | –
QSFGRLSLQPQQQQQRQRPPRPPP [N4BP2L1] | 4.64 ± 0.2 | 4.6 ± 0.32 | – | –
QSLRDLGVKISEQQAEKILKSMDK [SLC25A25] | 4.12 ± 0.28 | 4.19 ± 0.35 | – | –
QTLLPAACLLQLAEIQEACCEFLK [KLHL20] | 2.21 ± 0.31 | 2.36 ± 0.15 | – | –
QVGTMALWASQREKEVLRRERAVE [ZBED2] | 4.11 ± 0.26 | 4.31 ± 0.18 | – | –
QVLPDSESLPRSEIDEKVTDLVQF [MAGEA10] | 5.03 ± 0.3 | 4.99 ± 0.35 | – | –
QVNEINFENMSNDDAVRVLREIVH [DVL3] | 3.01 ± 0.16 | 3.09 ± 0.37 | – | –
QWQDLMSIMEMQAMEVNTSASEIL [NFE2L1] | 2.88 ± 0.45 | 2.86 ± 0.4 | – | –
RAGVQWKFAGSFYFAITVITTIGY [KCNK9] | 3.03 ± 0.064 | 3.11 ± 0.4 | – | –
RALSEYLAVFARCLAGCEGAHEQV [P3H4] | 2.62 ± 0.86 | 2.89 ± 0.91 | – | –
RALVRQFGQQDWKFLASHFPNRTD [MYBL2] | 3.09 ± 0.41 | 2.93 ± 0.19 | – | –
RASGEHVTDEEIESLMKDGDKNND [TNNC2] | 5.66 ± 0.12 | 5.68 ± 0.2 | – | –
RATSLGRPEEEEDELAHRCSSFMA [CPOX] | 4.68 ± 0.33 | 4.71 ± 0.17 | – | –
RAWEVDWFSLASVIFLLLFAPFIV [DHCR7] | 2.43 ± 0.45 | 2.65 ± 0.57 | – | –

Sequence | protein stability index [1] | protein stability index [2] | protein stability index (treatment: DMSO, c terminus: native) | protein stability index (treatment: MLN4924 1 uM, 8 h, c terminus: native)
RCVSFQARFAEKEELMLVHSLEYI [HDAC6] | – | 2.19 ± 0.3 | – | –
RDLLGALKHWRRAMELRHQGGEYL [FEM1A] | 2.46 ± 0.2 | 2.5 ± 0.45 | – | –
RDPFECNMCGYHSQDRYEFSSHIT [IKZF1] | 2.33 ± 0.4 | 2.33 ± 0.59 | – | –
RELGRLRQQVTNHGRGTEVLLEEP [ZNF263] | 4.7 ± 0.39 | 4.58 ± 0.33 | – | –
RESGAEPQEAVLQQLHQLPRGRLD [LRRC45] | 5.06 ± 0.3 | 5.16 ± 0.25 | – | –
RFPGRKQPGVHEEPVLKKWPKLKS [C22orf31] | 3.72 ± 0.49 | 3.57 ± 0.15 | – | –
RGAQGILLVYDITNRWSFDGIDRW [RAB40C] | 2.93 ± 0.91 | 2.79 ± 0.42 | – | –
RGEVPWSPELGRPHDRSQGDWAPP [ZNF263] | 4 ± 0.19 | 4.12 ± 0.35 | – | –
RIGKRPDLLTFVQNLCKGLSQPTT [NEUROD6] | 2.3 ± 0.22 | 2.17 ± 0.083 | – | –
RILWKKIQENQRNLYEEGRTAFLW [TRIM43] | 2.08 ± 0.36 | 2.31 ± 0.28 | – | –
RKEGIVKLKPHEEPLRSEILSGKF [PTPN9] | 4.16 ± 0.13 | 4.08 ± 0.14 | – | –
RKVTDSISKSLELCNEISLSEIKD [DLC1] | 4.136 ± 0.019 | 4.26 ± 0.11 | – | –
RLCAPLFRNIKQEPFSARVLVLCV [SOAT1] | 2.73 ± 0.84 | 2.85 ± 1.4 | – | –
RLDGQQEPQPFVTSDVYSSDAAFG [MYORG] | 4.56 ± 0.26 | 4.63 ± 0.14 | – | –
RLFEDVRSWMFRRGPLNSDRSDYF [TRIM43] | 2.54 ± 0.42 | 2.63 ± 0.13 | – | –
RLGRCMRRLRDMVERPHSGLPGKV [KCNG1] | 2.4 ± 0.17 | 2.69 ± 0.24 | – | –
RLLALIYLAHASDVLENAFAPLLD [GOLPH3] | 2.65 ± 0.48 | 2.7 ± 0.71 | – | –
RLLDHQDNILSLINVNDLSFVTGS [WDR41] | 2.22 ± 0.28 | 2.51 ± 0.3 | – | –
RLLGTAGTEEKKKLIRDFDEKQQE [VTI1B] | 5.06 ± 0.15 | 5.11 ± 0.33 | – | –
RMKETQKSIYYITGESKEQVANSA [HSP90AB1] | 4.07 ± 0.34 | 4.2 ± 0.25 | – | –
RMRYEGVVDIFQTVKMLRTQRPAM [PTPRD] | 2.18 ± 0.18 | 2.38 ± 0.29 | – | –
RNLAKRRRTYLGGAAGRSQEPEVP [RSPH3] | 4.38 ± 0.26 | 4.32 ± 0.2 | – | –
RPPTPLFIPAKTGKDVATQILEGE [RSPH3] | 4.82 ± 0.15 | 5.01 ± 0.11 | – | –

Sequence | protein stability index [1] | protein stability index [2] | protein stability index (treatment: DMSO, c terminus: native) | protein stability index (treatment: MLN4924 1 uM, 8 h, c terminus: native)
RPRGKERHKSGVHQPPQAGAGDVV [LYSMD4] | 5.07 ± 0.27 | 5.07 ± 0.057 | – | –
RQETVDCLKKFNARRKLKGAILTT [CAMK2A] | 3.15 ± 0.26 | 3.33 ± 0.24 | – | –
RQVPGSDPACYEFLWGPRALVETS [MAGEA3] | 3.11 ± 0.23 | 3.04 ± 0.37 | – | –
RRETVLFTDYGLAALAVNTSILSR [RNF208] | 2.09 ± 0.43 | 2.12 ± 0.18 | – | –
RRFNENAADRHINFCKEQAARISN [ZC2HC1A] | 2.56 ± 0.17 | 2.51 ± 0.39 | – | –
RRGIGGIFFDDLDSPSKEEVFRFV [CPOX] | 2.28 ± 0.2 | 2.64 ± 0.27 | – | –
RRKRTYWNDSCGEDMEASDYELED [WEE1] | 4.37 ± 0.3 | 4.92 ± 0.27 | – | –
RRPEVDPLPFPGPFPAGPLAVAGG [ESRRA] | 3.56 ± 0.21 | 3.71 ± 0.24 | – | –
RSGHTQTDYINASFMDGYKQKNAY [PTPN9] | 3.52 ± 0.2 | 3.61 ± 0.18 | – | –
RTELVEQAFRAIDRADYYLEEFKE [PCMTD2] | 4.1 ± 0.12 | 4.12 ± 0.19 | – | –
RTHINAVVAKIQAKIPGAKRHAE [RTN1] | – | – | 2.74 ± 0.25 | 3.04 ± 0.36
RTMRLWNIEEIDEIPLVIKYKKAV [WDR88] | 2.3 ± 0.4 | 2.26 ± 0.31 | – | –
RTYRYSNRYCGGPGPPITDCEMNS [DYRK1B] | 2.67 ± 0.23 | 2.56 ± 0.11 | – | –
RVLMYGSELDADHPGFKDNVYRKR [TPH1] | 3.59 ± 0.11 | 3.8 ± 0.29 | – | –
RVYNNTLTYGEVRNSKASAYCLDQ [GALNT9] | 2.98 ± 0.16 | 3.07 ± 0.31 | – | –
RYIIFKRNTLNQPCSGSVSLQPRR [GMCL1] | 2.27 ± 0.22 | 2.36 ± 0.43 | – | –
RYRGRGSEEYRAPRPQSEESWDEE [CHGB] | 5.28 ± 0.51 | 5.34 ± 0.33 | – | –
SALEEAFRRFAVHGDARATGREMH [TPPP] | 3.22 ± 0.38 | 3.12 ± 0.12 | – | –
SDPDCSMRPTLIDLLPTFRHTLQK [FBXO39] | 3.33 ± 0.27 | 3.45 ± 0.28 | – | –
SDTIYSYVRPERLSPISHGNTIAL [TCF25] | 2.37 ± 0.22 | 2.56 ± 0.31 | – | –
